# Test results as given in patent US20170052184A1 (published 2017).
# Columns and labels:
# [1] = target: T1, HCV Core1-169 (HCV-1, UniProt P26664 1-169); assay: EIA, core1-169 coated on plate
# T1 construct: also called recombinant HCV core antigen
# T1 sequence: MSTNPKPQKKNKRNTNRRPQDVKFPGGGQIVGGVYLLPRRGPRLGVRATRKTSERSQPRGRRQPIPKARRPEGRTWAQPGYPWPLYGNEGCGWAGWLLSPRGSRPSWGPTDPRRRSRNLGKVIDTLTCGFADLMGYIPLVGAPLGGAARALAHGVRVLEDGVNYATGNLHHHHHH
# [2] = target: T1, HCV Core1-169; assay: EIA, core1-169 captured by mAb 14-153-229
# Note: test concentration or dose not given here.
Binder,OD (A492) [1] [OD],OD (A492) [2] [OD]
"HCV 208B-189 (antibody, V domains shown) VH: QVHLQQSGAELAKPGASVQMSCKASGYTFTANKMHWARQRPRQGLEWIGYIDPASGYTEYNQKIKDRATLTADKSSSTAYMQLSSLTSEDSAVYYCTNFAYWGQGTLVTVST VL: not shown",0.49,1.81
"HCV 208B-1024 (antibody, V domains shown) VH: EVQLVESGGDLVKPGGSLKLSCAASGFTFSNYGMSWVRQTPDKRLEWVATISSGGSYSYYPDSVKGRFTISRDNAKNILYLQMSSLKSEDTAMYYCASLYYGYGDYWGQGTAFTVSS VL: DVLMTQTPLSLPVSLGDQASISCRSSQSIVHSNGNTYLEWYLQKLGQSPKLLIYRVSNRFSGVPDRFSGSGSGTDFTLKISRVEAEDLGVYYCFQGSHVPWTFGGGTKLEIKR",0.6,0.31
"HCV 208A-352 (antibody, V domains shown) VH: QGQMQQSGAELVKPGASVKLSCKTSGFTFSSSFISWLKQKPGQSLEWIAWIYAGTGNTNYNQKFTDKAQLTVDTSSSTAYMQFSSLTTEDSAIYYCAISGTGFTYWGQGTLVTVSA VL: DVLMAQTPLSLPVTLGDQASISCRSSQSLVHSNGNTYLEWFLQKPGQSPKLLIYNVSNRFSGVPDRFSGSGSGTDFTLKISRVEAEDLGVYYCFQGSHVPLTFGSGTKLEIKR",0.1,0.53
"HCV 208B-281 (antibody, V domains shown) VH: QGQLQQSGAELVKPGASVKLSCKTSGFTFSSSYISWLKQRPGQSLEWIAWIYAGTGGTNYNQKFTDKAQLTVDTSSSTAYMQFSSLTTEDSAIYYCAISGTGFIYWGQGTLVTVSA VL: DVLMTQTPLSLPVSLGDQASISCRSSQSLVHNNGNTYLEWFLQKPGQSPKLLIYKVSNRFSGVPDRFSGSGSGTDFTLKISRVEAEDLGVYYCFQGSHVPFTFGSGTKLEIKR",0.09,0.11
"HCV 208A-877 (antibody, V domains shown) VH: QLQQSGPELVKPGASVKISCKTSGYTFTENAMHWVKQSRGKSLEWIGGVNPNNGDTVYTQKFKGKATLTVAKSSSTAYMELRTMTCEESTVYYCASREPDFFDYWGQGSSVTVSS VL: QIVLTQSPAIMSVSPGEKVSMTCSASSSVTYMHWYQQKSGTSPKRWIYDTSELASGVPARFSGSGSGTTYSLTISSMEAEDAATYYCQQWSNKPLTFGAGTKLELKR",0.9,1.25
"HCV 208B-1096 (antibody, V domains shown) VH: QVQLQQSGAGLAKPGASVKMSCKASGYTFTANKMHWAKQRPGQGLEWIGYIDPSSGYTEYNHKIQYKATLTADTSSSTAYMQLSTLTFEDSAVYYCTNFAYWGQGTLVTVSA VL: DIVMTQTPLTLSVTIGQPASISCKSSQSLLFTNGKTYLNWFLQRPGQSPKRLIYLLSKLDSGVPDRFSGSGSGTDFTLKISRVEAEDLGVYYCLQSTYFPLTFGAGTKLELKR",0.49,1.75
"HCV 208B-589 (antibody, V domains shown) VH: QVQLQQSGAGLAKPGASVKMSCKASGYTFTANKMHWAKQRPGQGLEWIGYIDPSSGYTEYNHKIQDKATLTADTSSSTAYMQLSSLTFEDSAVYYCTNFAYWGQGTLVTVSA VL: DIVMTQTPLTLSVTIGQPASISCKSSQSLLFTNGKTYLNWFLQRPGQSPKRLIYLLSKLDSGVPDRFSGSGSGTDFTLKISRVEAEDLGVYYCLQSTYFPLTFGAGTKLELKR",0.68,1.29
"HCV 208B-178 (antibody, V domains shown) VH: DVKLVESGGGLVKLGGSLKLSCAASGFTFSSYYMSWVRQTPEKRLELVAAINSNGGSTYYPDTVKGRFTISRDNAKNTLYLQMSSLKSEDTALYYCARHGGLGRRDWYFDVWGAGTTVTVSS VL: DIVLTQSPASLAVSLGQRATISCRASESVDNYGISFMHWYQQKPGQPPKLLIYRASNLESGIPARFSGSGSRTDFTLTINPVETDDVATYYCQQSNKDPFTFGSGAKLEIKR",0.89,1.09
"HCV 208A-126 (antibody, V domains shown) VH: QLQQSGPVLVKPGASVMISCKTSGYTFTENAMHWVKQSHGKSLEWIGGVNPNNGDTIFNQKFKGKATLTVDKSSNTAFTELRSLPSEESTVYYCVRRGLDFFDYWGQGTSVTVSS VL: DIVLTQSPASLAVSLGQRATISCRASQSVSTSRYSYMHWYQQKPGQPPKLLIKYASNLESGVPARFSGSGSGTDFTLNIHPVAEEDTAAYYCQHSWEFPFTFGSGTKLEIKR",0.69,1.2
"HCV 208A-1064 (antibody, V domains shown) VH: EVQLQQSGPELVKPGASVKISCKTSGYTFTEYAMHWMKQSHGKSLEWIGGINPTNGDTIYNQKFKDKAKLTVDRSSSTAYMELRSLTSDDSALFYCARRELDYFASWGQGTTLTVSS VL: DIVLTQSPASLIVSLGQTATISCRASQSVSTSRFSYLHWIQQKPGQPPKLLIKYASNLESGVPVRFSGSGSGTDFTLNIHPVEEEDTATYFCQHSWEFPFTFGSGTKLKIKR",0.94,1.57
"HCV 208A-830 (antibody, V domains shown) VH: EVRLQQPGPEVEKPGASVKISCKTSGYTFTEYAIHWVKQSHGESLEWIGGINPSNGDPIYNQIFKDKATLTVDRSSNTAYMGLRSLTVGDSGVYFCVRRQLDYFDFWGQGASLTVSS VL: DIVLTQSPASLAVSLGQRATISCRSSQSVSTSRYSYLHWYQQKPGQPPKLLIKYASNLESGVPARFSGSGSGTDFTLNIHPVGEEDPATYYCQHSWEFPFTFGSGTKLEIKR",1.16,2.09
"HCV 208A-334 (antibody, V domains shown) VH: not shown VL: DIVLTQSPASLAVSLGQRATISCRASQSVSTSRYSYMHWYQQKPGQPPKLLIKYASNLESGVPARFSGSGSGTDFTLNIHPVAEEDTAAYYCQHSWGFPFTFGSGTKLEIKR",1.28,1.9
"HCV 208A-741 (antibody, V domains shown) VH: QLQQSGPVLVKPGASVMISCKTSGYTFTENAMHWVKQSHGKSLEWIGGVNPNNGDTIFNQKFKGKATLTVDKSSSTAFMELRSLTSEESTVYYCVRRELDFFDYWGQGTSVTVSS VL: DIVLTQSPASLAVSLGQRTTISCGASQSVSTSRFSYMHWYQQKPGQPPKLLIKYASNLESGVPARFSGSGSGTDFTLNIHPVAEEDTAAYYCQHSWEFPFTFGSGTKLEIKR",1.2,1.9
"HCV 208B-251 (antibody, V domains shown) VH: QLQQSGPVLVKPGASVKISCKTSGYTFTENAMHWVKQSHGKSLEWIGGVNPNNGDTIYNQKFKGKATLTVDKSSSTAFMELRSLTSEESPVYFCVRRELDFFDYWGQGTSVTVSS VL: DIVLTQSPASLAVSLGKKATISCRASQSVSTSRYSYMHWYQQKPGHPPKLLIKYASNLESGVPARFSGSGSGTDFTLNIHPVAEEDTAAYYCQHSWEFPFTFGSGTKLEIKR",0.79,1.39
"HCV 208B-1094 (antibody, V domains shown) VH: EVQLQQSGPELVKPGASVKISCKTSGYTFTEYAMHWMKQSHGKSLEWIGGINPTNGDTIYNQRFKDKAKLTVDRSSSTAYMELRSLTSDDSALFYCARRELDYFASWGQGTTLTVSS VL: DIVLTQSPASLIVSLGQTATISCRASQSLSTSRFSYVHWIQQKPGQPPKLLIKYASNLESGVPVRFSGSGSGTDFTLNIHPVEEEDTATYFCQHSWEFPFTFGSGTKLKIKR",0.9,1.51
"HCV 208A-159 (antibody, V domains shown) VH: QLQQSGPAQVKPGASVMISCKTSGYTFTENAMHWVKQSHGKSLEWIGGVNPNNGDTIFNQKFKDKAALTVDKSSSTAFMELRSLTSEESTVYYCVRRELDFFDYWGQGTSVTVSS VL: DIVLTQSPASLAVSLGQRATISCRASQSVSTSRYSYVHWYQQKPGQPPKLLIKYAANLESGVPARFSGSGSGTDFTLNIHPVAEEDAAAYYCQHSWEFPFTFGSGTKLEIKR",0.57,1.29
"HCV 208B-556 (antibody, V domains shown) VH: QLQQSGPVLVKPGASVMISCKTSGYTFTENAMHWVKQSHGKSLEWIGGVNPNNGDTIFNQKFKGKATLTVDKSSSTAFMEFRSLTSEESTVYYCVRRELDFFDYWGQGTSVTVSS VL: DIVLTQSPASLAVSLGQRATISCRASQSVSTSRYSYMHWYQQKPGQPPKLLIKYASNLESGVPARFSGSGSGTDFTLNIHPVAEEDTATYYCQHSWEFPFTFGSGTKLEIKR",0.74,1.35
"HCV 208A-133 (antibody, V domains shown) VH: QLQQSGPVLVGPGASVMISCKTSGYTFTENAMHWVEQSHGKSLEWIGGVNPNNGDTIFNQKFKGKATLTVDKSSSTAFMEFRSLTSEESTVYYCVRRELDFFDYWGQGTSVTVSS VL: DIVLTQSPASLAVSLGQRATISCRASQSVSTSRYSYMHWYQQKPGQPPKLLIKYASNLESGVPARFSGSGSGTDFTLNIHPVAEEDTATYYCQHSWEFPFTFGSGTKLEIKR",1.73,1.46
"HCV 208A-293 (antibody, V domains shown) VH: EVQLQQSGPELVKPGASVKISCKASGFTFTEYAMHWMKQSHGKSLEWIGGINPTNGDAIYNQKFKDKAKLTVDRSSSTAYMELRSLTSDDSALFYCARRELDYFPSWGQGTTLTVSS VL: DIVLTQSPASLIVSLGQRATISCRASQSVSTSRFSYVHWIQQKPGQPPKLLIKYASNLESGVPVRFSGSGSGTDFILNIHPVEEEDTATYFCQHSWEFPFTFGSGTKLEIKR",1.41,2.31
